This passage reports stoichiometry N results from publication PMC4500099.

The test deals with Mercuric ion reductase (MerA) from Metallosphaera sedula (Metallosphaera sedula). In words: crystal structure; hanging drop; 0.085M TRIS (pH 8.5), 15% v/v glycerol, 14% w/v PEG400, 0.19M LiSO4, 20 mg/mL protein; data collected at 100 K; bound FAD; space group P22(1)2(1), two monomers per asymmetric unit.

Broadly, the stoichiometry N is the number of molecules, sites or subunits per partner or assembly. Turning to “Mercuric ion reductase (MerA) from Metallosphaera sedula (enzyme)”, the stoichiometry N worked out at 2.
